The test system of one assay is PCNA. As to conditions: PIP or APIM mutated; local ultraviolet irradiation; ref [5]; cited from earlier work.
Assay [1] has as its target uniformly 2H,13C,15N-labelled proliferating cell nuclear antigen (PCNA), used in NMR (human, UniProt P12004 1-259, uniformly 2H,13C,15N enriched). Put plainly: NMR titration.

Chain of uniformly 2H,13C,15N-labelled proliferating cell nuclear antigen (PCNA), used in NMR (P12004 1-259): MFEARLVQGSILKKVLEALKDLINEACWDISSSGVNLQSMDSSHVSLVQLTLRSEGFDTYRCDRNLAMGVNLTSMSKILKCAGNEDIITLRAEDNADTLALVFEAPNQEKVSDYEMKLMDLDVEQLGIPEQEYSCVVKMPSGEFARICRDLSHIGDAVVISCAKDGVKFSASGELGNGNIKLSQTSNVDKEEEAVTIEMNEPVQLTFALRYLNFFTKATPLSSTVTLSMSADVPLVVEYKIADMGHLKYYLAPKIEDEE

B1: F-box DNA helicase 1 (protein, UniProt Q8NFZ0 1-1043, looked up)
F-box DNA helicase 1: MRRFKRKHLTAIDCQHLARSHLAVTQPFGQRWTNRDPNHGLYPKPRTKRGSRGQGSQRCIPEFFLAGKQPCTNDMAKSNSVGQDSCQDSEGDMIFPAESSCALPQEGSAGPGSPGSAPPSRKRSWSSEEESNQATGTSRWDGVSKKAPRHHLSVPCTRPREARQEAEDSTSRLSAESGETDQDAGDVGPDPIPDSYYGLLGTLPCQEALSHICSLPSEVLRHVFAFLPVEDLYWNLSLVCHLWREIISDPLFIPWKKLYHRYLMNEEQAVSKVDGILSNCGIEKESDLCVLNLIRYTATTKCSPSVDPERVLWSLRDHPLLPEAEACVRQHLPDLYAAAGGVNIWALVAAVVLLSSSVNDIQRLLFCLRRPSSTVTMPDVTETLYCIAVLLYAMREKGINISNRIHYNIFYCLYLQENSCTQATKVKEEPSVWPGKKTIQLTHEQQLILNHKMEPLQVVKIMAFAGTGKTSTLVKYAEKWSQSRFLYVTFNKSIAKQAERVFPSNVICKTFHSMAYGHIGRKYQSKKKLNLFKLTPFMVNSVLAEGKGGFIRAKLVCKTLENFFASADEELTIDHVPIWCKNSQGQRVMVEQSEKLNGVLEASRLWDNMRKLGECTEEAHQMTHDGYLKLWQLSKPSLASFDAIFVDEAQDCTPAIMNIVLSQPCGKIFVGDPHQQIYTFRGAVNALFTVPHTHVFYLTQSFRFGVEIAYVGATILDVCKRVRKKTLVGGNHQSGIRGDAKGQVALLSRTNANVFDEAVRVTEGEFPSRIHLIGGIKSFGLDRIIDIWILLQPEEERRKQNLVIKDKFIRRWVHKEGFSGFKRYVTAAEDKELEAKIAVVEKYNIRIPELVQRIEKCHIEDLDFAEYILGTVHKAKGLEFDTVHVLDDFVKVPCARHNLPQLPHFRVESFSEDEWNLLYVAVTRAKKRLIMTKSLENILTLAGEYFLQAELTSNVLKTGVVRCCVGQCNNAIPVDTVLTMKKLPITYSNRKENKGGYLCHSCAEQRIGPLAFLTASPEQVRAMERTVENIVLPRHEALLFLVF
As for B1, the “co-localization of PCNA and FBH1 on motif mutation” value in the assay with PCNA was “reduced co-localization of PCNA and FBH1 when either PIP or APIM is mutated”.

What is called Kd is the free concentration of one partner at which half of the binding sites on the other are occupied at equilibrium, for simple one-to-one binding. Low readings indicate tighter binding, high ones weaker binding. In assay [1], GSQRCIPEFFLAGK [FBH1PIP peptide (residues 55-68 of F-box DNA helicase 1)] yielded a Kd of 7.8 µM. In other words, the single-digit micromolar range. KDKFIRRWVHK [FBH1APIM peptide (residues 805-815 of F-box DNA helicase 1)] gave a Kd in assay [1] of 276 µM.

The values are drawn from PMC10727010 (Structure (London, England : 1993), 2023).
